We go through 143 substances from the supplement of paper PMC12042874.

The nature of this data set: amyloid nucleation score (Sup35N fusion, yeast selection) (log enrichment); library NNK1; higher = more nucleation; inactive = no reads after selection. The gist of the method: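 Output and input plasmid inserts were sequenced by Illumina after psi-negative yeast carrying Sup35N fused to peptides of 20 random codons had been induced 24 hours with 100 μM copper sulfate and grown 7 days at 30°C on medium lacking adenine and uracil. The nucleation score is the DiMSum log enrichment of output over input reads, centred on the mode score of non-aggregating sequences. Sequences with under 100 input reads were excluded.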

± gives the uncertainty stated by the source.

The substance YTMMCGISQRQLTKRRPTLW yielded an amyloid nucleation score of -0.205 ± 0.52.

Substance KELKYCVFALVVAD returned an amyloid nucleation score of 0.012 ± 0.63.

In turn, SNMEYVMNEILVRLALPTSR gave an amyloid nucleation score of -0.671 ± 1.5.

As to VIGSMVGLI, the amyloid nucleation score came to 0.668 ± 0.31.

The substance FGLVREVFKM showed an amyloid nucleation score of 0.171 ± 0.59.

FYCLSNKFFYIVCRNALQSS came in with an amyloid nucleation score of -0.324 ± 0.35.

In the case of VVESGVFWDSSYNFKGDTVW, the amyloid nucleation score worked out at 0.532 ± 0.92.

For the substance AYYVRGRNLLFVTIGYGYLC, the amyloid nucleation score was -1 ± 1.

With LGRLAVDHLVCRRYDSSLHN, the amyloid nucleation score was determined as 0.089 ± 1.1.

The substance SGCVQLM registered an amyloid nucleation score of 1.32 ± 0.74.

Substance VMGSGLRMGLAESCVENGAS displayed an amyloid nucleation score of -0.021 ± 0.31.

On to VCPVHSNKGLQFLSMRHYSS, for which the amyloid nucleation score was 0.511 ± 0.87.

With HYFPVIDQAICFDSFRPMPV, the amyloid nucleation score result is “inactive”.

Consider GNFMRLRWNVKFL, for which the amyloid nucleation score was -0.016 ± 0.72.

DAGRWSYPGRCPNMWLRLLM came in with an amyloid nucleation score of -0.461 ± 0.68.

SWQPECCTVQTLSSKSEISH: the amyloid nucleation score was -0.158 ± 1.6.

In the case of LDMTTTLLVSLESDG, the amyloid nucleation score came out at 0.04 ± 0.73.

For VLRIDSPLSMILFEVVRCEQ, the amyloid nucleation score is -0.322 ± 0.31.

With IGAGL, the amyloid nucleation score was -1.07 ± 2.4.

ATYAYRFRLVSTIICLD: the amyloid nucleation score was -0.222 ± 1.4.

Take SSRYLSDSIKLAGWSIT: the amyloid nucleation score is -1.39 ± 2.4.

In turn, FRTATWNKIGAQDRVKSISV registered an amyloid nucleation score of -1.06 ± 2.7.

With LVSMYA, the amyloid nucleation score is -0.859 ± 0.73.

YWFCNRIGIVGIVLSGYLCL: the amyloid nucleation score was -0.154 ± 0.26.

The substance AGIIVWN showed an amyloid nucleation score of -0.087 ± 0.31.

Substance LPKLICIKRASLFNPFLDLM gave an amyloid nucleation score of 0.056 ± 0.24.

As to QGLSGDDCLHGNFKFHMSET, the amyloid nucleation score is -0.243 ± 0.32.

In turn, LKLLINGY showed an amyloid nucleation score of -0.333 ± 0.59.

In turn, LMGSRAGSLTQLIESNTKER yielded an amyloid nucleation score of -0.748 ± 1.1.

In turn, LYSKGIPMACAQVVVYLNER yielded an amyloid nucleation score of 6.49 ± 0.055.

In turn, VTYDKAQG showed an amyloid nucleation score of 0.051 ± 0.68.

NEDAPFMVTSKVVSGT returned an amyloid nucleation score of 0.176 ± 0.34.

Take PLEKVFVGPSADASNEEHRL: the amyloid nucleation score is -0.883 ± 1.1.

For the substance SRLWVFD, the amyloid nucleation score was 0.314 ± 0.79.

For the substance SGNGG, the amyloid nucleation score was -0.158 ± 0.34.

For FVSSVGKSEQVPSTEFFCVS, the amyloid nucleation score came to 0.174 ± 1.5.

IAYDRRFIDLTRFIAIKFYI showed an amyloid nucleation score of -0.021 ± 0.93.

As to GNCPNT, the amyloid nucleation score is 0.367 ± 0.75.

For the substance SYVFDKGFIVNVITRCRKKM, the amyloid nucleation score stood at 1.44 ± 0.34.

Turning to FVVQPYHYKSY, the amyloid nucleation score came out at 0.264 ± 0.34.

DLIWNSSFVRLNVTNPLMFR: the amyloid nucleation score entry was “inactive”.

With CLWSSVGRQTEWFSHEVNGG, the amyloid nucleation score was found to be 0.017 ± 0.43.

Regarding MSFSCWFLS, the amyloid nucleation score was 0.445 ± 0.88.

In turn, VRCVICCFCIWLKAWWDYKR showed an amyloid nucleation score of 1.47 ± 0.45.

Take SSTRT: the amyloid nucleation score worked out at 0.667 ± 0.97.

The substance CRKFQWLSLM had an amyloid nucleation score of -0.921 ± 1.7.

Turning to VWNNKECANFDNIWATLLIV, the amyloid nucleation score entry was “inactive”.

The substance PQEFLFHTDQRSGCVITETS had an amyloid nucleation score of 0.179 ± 0.57.

On to PYVEIAWS, for which the amyloid nucleation score was -1.19 ± 0.85.

Take VNCGSYVDLDVGVIGPR: the amyloid nucleation score came out at 0.255 ± 0.84.

YNLDSLLIWWVIDC displayed an amyloid nucleation score of -0.22 ± 1.1.

For FVLSNIPVAYLANANNAFHF, the amyloid nucleation score is 0.677 ± 0.52.

As for LKPLRKFRSNVNMR, the amyloid nucleation score entry is “inactive”.

For ALVTWWSYHSLMVSGCKVRS, the amyloid nucleation score was -0.299 ± 0.59.

With LIMILGIRDHLTNCGGKVLQ, the amyloid nucleation score was 2.03 ± 0.3.

For the substance IKMSSRYFMLGTLLSPGLEV, the amyloid nucleation score result was “inactive”.

AGFSSDFASVPHPLGYGWLT came in with an amyloid nucleation score of -0.662 ± 1.2.

LKICLIGTNCMSNV registered an amyloid nucleation score of -0.234 ± 0.78.

On to FWHGSCSLDNDFHS, for which the amyloid nucleation score was -0.442 ± 0.51.

Regarding IYFGFCRD, the amyloid nucleation score is 2.02 ± 0.089.

For the substance SGWYDP, the amyloid nucleation score is -0.523 ± 0.7.

On to SITVPGFVAQISGVPIREYC, for which the amyloid nucleation score is 0.348 ± 0.79.

On to KGRVKGSVASSLS, for which the amyloid nucleation score is -0.309 ± 0.57.

In the case of ILYFLPNFHIMLSLI, the amyloid nucleation score result is “inactive”.

As for AKSKVLWESSVRQRS, the amyloid nucleation score was -0.04 ± 0.62.

In turn, LVILVVFGKRY had an amyloid nucleation score of -0.139 ± 0.41.

As to YILPFFGRHYNRHGVFAGAM, the amyloid nucleation score was -0.647 ± 0.9.

In the case of AVIEYR, the amyloid nucleation score is -0.582 ± 0.32.

As to PIFMVSLST, the amyloid nucleation score was -0.661 ± 0.66.

On to WRVSMFGLSESLDRLPCKDL, for which the amyloid nucleation score was -0.371 ± 0.45.

The substance LRTRDQSGFSAVIYSKNPRA returned an amyloid nucleation score of 0.106 ± 0.51.

LLCARCRMSVSEFPNPGVSY: the amyloid nucleation score entry is “inactive”.

The substance PPMDIGLLPVRI gave an amyloid nucleation score of -1.69 ± 1.7.

Take IIFGRGFFSHSGVRTNQCYT: the amyloid nucleation score was -1.43 ± 1.

Take LRVSYWQDLAVLYLDSPLGL: the amyloid nucleation score was -0.358 ± 0.87.

Regarding MCDGTFCGSSSGHCSASLRH, the amyloid nucleation score is 0.728 ± 0.35.

Turning to LFSSLRRGRHSLPIPLPMNL, the amyloid nucleation score came out at 0.013 ± 0.36.

Consider VRLVVQWEKVKDCLIVWD, for which the amyloid nucleation score amounted to 1.85 ± 0.12.

In turn, RDVTCRLYLMLWS displayed an amyloid nucleation score of -0.641 ± 1.5.

Take RLFNTAQGSHSWH: the amyloid nucleation score stood at 1.56 ± 0.71.

Regarding GLGCSSLCQLMN, the amyloid nucleation score is 0.983 ± 0.56.

The substance FFQRVCK gave an amyloid nucleation score of 1.65 ± 0.31.

TYYSGDSAYLPIDAIMLVWY yielded an amyloid nucleation score of -1.07 ± 0.65.

For the substance CILVARKAVLNCGGWKRSVR, the amyloid nucleation score came out at 6.27 ± 0.067.

In turn, VLLFNHYFLRAAVIIAWVGW showed an amyloid nucleation score of -0.618 ± 1.6.

As to VCVNSENHNFT, the amyloid nucleation score entry was “inactive”.

Take NLWSGFLRFKFSCGRIDGIL: the amyloid nucleation score is -0.622 ± 0.41.

As to RRKLACCCRFSVLSSGCVQN, the amyloid nucleation score was -0.668 ± 1.7.

In turn, LCRILGSSPVHNLWLWGHGY showed an amyloid nucleation score of -0.363 ± 1.4.

FLEWAPSLNKLHRF: the amyloid nucleation score came to 0.768 ± 0.17.

NVGQPRNVVDSIQ had an amyloid nucleation score of 0.67 ± 0.23.

As for LGECFTGTDRLLEGLVSCES, the amyloid nucleation score came out at 0.776 ± 0.88.

For the substance WPRNFYFMFRCLGMAAREMC, the amyloid nucleation score was found to be 0.285 ± 0.63.

For the substance VVISMTTMKVFMLVYTMDFM, the amyloid nucleation score came out at 0.046 ± 0.21.

In the case of TGNCAMFPTWLHVIPFSQY, the amyloid nucleation score is 3.1 ± 0.14.

NISVHDNNLFHVWNLMVDSG: the amyloid nucleation score turned out to be 5.83 ± 0.061.

Take NQYLPS: the amyloid nucleation score is -0.126 ± 1.2.

KKGLSKMVKPVYSCLN: the amyloid nucleation score is -1 ± 1.6.

In turn, CFDVQ returned an amyloid nucleation score of 2.29 ± 0.61.

The substance IQTKGNKDVIGVYITMYTRL registered an amyloid nucleation score of -0.671 ± 0.28.

IMVANVSPSQKFNG showed an amyloid nucleation score of 0.346 ± 0.4.

GFPVVAEHVVEFKLV returned an amyloid nucleation score of 0.093 ± 0.7.

The substance GFLTVNYWHSEV displayed an amyloid nucleation score of 0.065 ± 0.21.

RVIGTGYECTNATEDSLSYL: the amyloid nucleation score result is “inactive”.

GCCSVFQNCCSSRVYIFVPI: the amyloid nucleation score worked out at 4.87 ± 0.082.

The substance RPILLSSLPIHSERMWSTSL came in with an amyloid nucleation score of -0.257 ± 1.4.

NSVIFELISSCVNDSNVAGD: the amyloid nucleation score was 1.45 ± 0.63.

Take LEMCLQDVIDGSGQGQNEWG: the amyloid nucleation score was -0.074 ± 0.7.

Substance RCINGNIYNKSW returned an amyloid nucleation score of 0.18 ± 0.26.

The substance EGNLVLSMLMY displayed an amyloid nucleation score of -0.198 ± 0.47.

EEDII: the amyloid nucleation score amounted to 1.96 ± 0.26.

With KVLLR, the amyloid nucleation score was 0.725 ± 0.36.

RTVPTRWACVLVSGVWRYGA had an amyloid nucleation score of 0.504 ± 0.46.

Take HPPNFVNVSW: the amyloid nucleation score is -0.023 ± 0.51.

With NRVSFYATTNFSISRFGSWG, the amyloid nucleation score result is “inactive”.

Take ARLLSQVEAEASWSNTY: the amyloid nucleation score came out at 0.568 ± 0.43.

For the substance CVMVVSF, the amyloid nucleation score came out at 0.934 ± 0.42.

For the substance ALLESGCWSMWFVSFRFELA, the amyloid nucleation score was -0.119 ± 0.76.

GSMLCGEVERMSECKESGGP returned an amyloid nucleation score of -0.354 ± 0.48.

In the case of FHICDNRLDCSLIVVANSWK, the amyloid nucleation score was determined as 2.65 ± 0.18.

For GCFIVR, the amyloid nucleation score is -0.768 ± 0.98.

In turn, HESLWKFESSFADKNRTVWN gave an amyloid nucleation score of 1.32 ± 0.45.

DWQMMVYRNAFLPR displayed an amyloid nucleation score of -1.32 ± 1.3.

Substance FGTGFSLCKFFCLAMRPSDV registered an amyloid nucleation score of 5.25 ± 0.08.

APCQYSFVSVSYSTVNWLMT gave an amyloid nucleation score of 8.933 ± 0.071.

As to DTFCQL, the amyloid nucleation score is -0.147 ± 1.1.

Substance RACLQRWPNMRITCC had an amyloid nucleation score of -0.005 ± 1.2.

Turning to NWLTTQNI, the amyloid nucleation score was -0.371 ± 0.42.

Take DVRAWVMARVGRGSELGARG: the amyloid nucleation score is 0.075 ± 0.84.

For the substance CYNNF, the amyloid nucleation score result was “inactive”.

AIPRSVITRFLSCLAIEAWQ showed an amyloid nucleation score of 0.627 ± 0.41.

VRALND showed an amyloid nucleation score of -0.581 ± 0.3.

Substance AYVKLILCLCRNLDWK had an amyloid nucleation score of 2.98 ± 0.24.

Consider NLVYTAIAPPFASFRK, for which the amyloid nucleation score stood at 0.005 ± 0.65.

Regarding LSFSMGYNYELATTKWSVVF, the amyloid nucleation score is 1.3 ± 0.41.

For the substance AMWSSLIDMCNNG, the amyloid nucleation score amounted to 0.35 ± 0.25.

The substance FFYMDKLLCAQSPVRIFR gave an amyloid nucleation score of 0.837 ± 0.84.

On to VRSPNIEYDFCRVLPTLTGE, for which the amyloid nucleation score turned out to be 0.505 ± 1.4.

As to MYGLVLCIYVSHVVR, the amyloid nucleation score stood at 1.54 ± 0.43.

TLHYRWECVLCPACRYGLSD: the amyloid nucleation score was 1.14 ± 0.68.

In turn, CVKAD came in with an amyloid nucleation score of -0.354 ± 0.54.

Consider HNIAIAPARWCVSSIRSG, for which the amyloid nucleation score is -0.53 ± 0.45.

Take PSSKCGCWTTPEMIEGYRNL: the amyloid nucleation score is -0.119 ± 0.51.
